Tests used:
[1] = target: T1, human TNFR2 on the cell membrane (human, UniProt P20333 23-461); assay: flow cytometry on ConA-stimulated spleen cells of hTNFR2-KI mice, mCD3+ T cells
T1 construct: whole, on cells; One molecule for all cell formats; also called TNFR2-CHO cells; CHO-TNFR2
T1 sequence (looked up): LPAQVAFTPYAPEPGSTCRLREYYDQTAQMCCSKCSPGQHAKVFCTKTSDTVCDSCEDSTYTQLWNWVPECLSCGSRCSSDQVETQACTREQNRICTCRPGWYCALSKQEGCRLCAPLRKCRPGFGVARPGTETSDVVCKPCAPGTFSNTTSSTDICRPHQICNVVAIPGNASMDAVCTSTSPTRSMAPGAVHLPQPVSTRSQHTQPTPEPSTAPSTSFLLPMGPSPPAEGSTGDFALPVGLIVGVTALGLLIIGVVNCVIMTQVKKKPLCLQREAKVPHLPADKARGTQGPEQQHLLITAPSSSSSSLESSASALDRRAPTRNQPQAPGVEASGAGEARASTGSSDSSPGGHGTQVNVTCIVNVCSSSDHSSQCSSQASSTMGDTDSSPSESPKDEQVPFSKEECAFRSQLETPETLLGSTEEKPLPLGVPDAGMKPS
Description: The cells were stained again with Cy-3 anti-human IgG and FITC anti-mCD3 (BD, 555274) after washing, under the same incubation conditions. After washing, the detection was performed.

[2] = target: T2, TNFR2-His (Sino Biological, 10417-H08H, NP_001057.1 Met1-Asp257, with multi-histidine tag expressed on … (human, UniProt P20333 23-257)); assay: ELISA, coated TNFR2-His
T2 construct: range 1-257; Bought protein; also called recombinant human TNFR2 protein; TNFR2-His antigen; not shown: C-terminal multi-histidine tag
T2 sequence (looked up): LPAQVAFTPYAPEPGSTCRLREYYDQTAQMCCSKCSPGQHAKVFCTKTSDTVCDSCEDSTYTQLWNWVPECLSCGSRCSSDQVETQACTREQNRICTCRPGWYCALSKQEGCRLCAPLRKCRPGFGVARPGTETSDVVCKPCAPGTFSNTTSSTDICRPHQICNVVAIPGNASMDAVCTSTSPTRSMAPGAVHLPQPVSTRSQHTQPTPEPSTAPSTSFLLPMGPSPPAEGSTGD
In short: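 Recombinant human TNFR2 with a C-terminal His tag was coated onto plates, which were then blocked. Antibodies in serial dilution were incubated on the plates, followed by an enzyme-labelled anti-IgG secondary antibody. After TMB development, plates were read on a microplate reader, and EC50 was derived from the dilution series.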

[3] = target: T1, human TNFR2 on the cell membrane; assay: flow cytometry on human PBMC, CD3+ T cells
Description: Purified anti-human TNFR2 human-mouse chimeric monoclonal antibodies were co-cultured with PBMC cells (Oricells) and stained. The binding of the antibody was analyzed by flow cytometry. The specific steps are as follows: PBMC cells (Oricells) were counted, centrifuged, resuspended, then added to a 96-deep well plate, and the supernatant was discarded. Diluted anti-TNFR2 monoclonal antibodies were added.

[4] = target: T2, TNFR2-His (Sino Biological, 10417-H08H, …); assay: BLI, antibody captured on AHC probe, TNFR2 in solution
Description: The GATOR (ProbeLife) detection instrument and AHC (Pall, 185064), Human antibody Capture probe were used to detect the dissociation constant (Kd) of human-mouse chimeric TNFR2 monoclonal antibody.
The human-mouse chimeric TNFR2 monoclonal antibodies were diluted to 50 nM in binding buffer (Q buffer [PBS (10 mM PH7.4)+0.02% Tween 20+0.2% BSA). The recombinant human TNFR2 protein was diluted in Q buffer with a 2-fold gradient starting from the highest concentration of 100 nM. The kinetic association assay was conducted by placing the antibody capture sensor in the continuously diluted antigen solutions mentioned above. The Octet Data Acquisition software was pened and the New Kinetics Experiment-Basic Kinetics mode was selected.

[5] = target: T2, TNFR2-His (Sino Biological, 10417-H08H, …); assay: ELISA, plate coated with TNFR2-His
Description: To determine whether the human-mouse chimeric TNFR2 monoclonal antibody of the present invention can bind to recombinant human TNFR2 protein, in vitro ELISA test was conducted. Similar to the method described above, The plate was coated with TNFR2-His (Sino Biological, 10417-H08H, Assessment #NP_001057.1.Met1-Asp257, with multi-histidine tag expressed on C-terminus) antigens, and blocked with BSA, then added with gradient diluted human-mouse chimeric TNFR2 monoclonal antibodies for incubation. Then, secondary antibody Ap-anit-human IgG Fc (JacksonImmuno Research, 109-055-098) was added for incubation After TMB development, ELISA reading was performed.

[6] = target: T1, human TNFR2 on the cell membrane; assay: flow cytometry on Jurkat-TNFR2 cells
Description: Purified human-mouse monoclonal antibodies against TNFR2 were co-cultured with TNFR2 positive Jurkat cells (Jurkat cells were transfected with pcDNA3.4-TNFR2 plasmid using conventional methods, and after screening, stable and highly expressed TNFR2 Jurkat cell lines were obtained) and stained. The antibody binding intensity was analyzed by flow cytometry. The specific steps are as follows: Jurkat-TNFR2 was counted, centrifuged, resuspended, then added to a 96-deep well plate, and the supernatant was discarded. The anti-TNFR2 antibody was gradient diluted, and added to the 96-deep well plate, After incubation and wash, the secondary antibody FITC-anti-human IgG (Abcam: 6854) was added, and the samples were detected using Beckman CytoFLEX.

B1: human-mouse chimeric TNFR2 monoclonal antibody 27F6-hFc (antibody, V domains shown)
VH: EVQLQQSGTVLARPGASVKMSCKTSGYTFTSYWMHWVKQRPGQGLEWIGTIYPGNSDTSYNQKFKGKAKLTAVTSASTAYMELNSLTNEDSAVFYCTRENLLLRSYFFDYWGQGTTLTVSS
VL: DIVMTQSPASLAVSLGQRATISCKASQSVDYDGDSYLNWYQQKPGQPPKLLIYAASNLPSGIPARFSGSGSGTDFTLNIHPVEEEDAATYYCQQSNEDPRTFGGGTKLEIK
notes: Mouse V regions of clone 27F6 with human constant regions
percent of cells in the upper right quadrant (Q2-UR, mCD3+ and anti-hIgG+) [1]: 36% | EC50 [2]: 0.278 nM | percent of cells in the upper right quadrant (Q1-UR, CD3+ and anti-human IgG Fc+) [3]: 42.3% | Kd [4]: 9.38 nM | koff [4]: 0.00761 s⁻¹ | kon [4]: 811000 M⁻¹ s⁻¹ | EC50 [5]: 0.0415 µg/mL | EC50 [6]: 0.0357 µg/mL

B2: human-mouse chimeric TNFR2 monoclonal antibody 12E12-hFc (antibody, V domains shown)
VH: EVQLQQSGAELVKPGASVKLSCTVSGFNIKDFYIHWVKQRPEQGLEWIGRVDPEDGNTEYAPNFQDRATMTTDTSSNTAYLQLSSLTSVDTAVYYCSTWDGFSYFDYWGLGTTLTVSS
VL: QAVVTQESALTTSPGETVTLTCRSSTGPVTTNNYANWVQEKPDHLFTGLIGGTNDRAPGVPARFSGSLIGDKTALTITGTQTEDEAVYFCALWYRNHWVFGGGTKLTVL
notes: Mouse V regions of clone 12E12 with human constant regions; also called human-mouse chimeric 12E12 antibody
percent of cells in the upper right quadrant (Q2-UR, mCD3+ and anti-hIgG+) [1]: 46.2% | EC50 [2]: 0.265 nM | percent of cells in the upper right quadrant (Q1-UR, CD3+ and anti-human IgG Fc+) [3]: 45.6% | Kd [4]: 3.9 nM | koff [4]: 0.00304 s⁻¹ | kon [4]: 780000 M⁻¹ s⁻¹ | EC50 [5]: 0.0396 µg/mL | EC50 [6]: 0.0123 µg/mL

From patent US20240392024A1 (SHANGHAI CELGEN BIO PHARMACEUTICAL, published 2024)
